Assay results published in paper PMC11984302.

Biological target: thrombin (human plasma, Sigma-Aldrich) (Homo sapiens, UniProt P00734;P00734 328-363;364-622)
Test: EMSA; 1 nM aptamer, thrombin 0.1x-100x; SICS: thrombin in 1 M KCl (or 150 mM KCl), pH 7.5, 30 min incubation, 300 mV; gel: 16% Tris-Glycine; temperature not stated

B1: extended TBA 1 annealed to Cy5 gap oligo (mixed)
DNA 1: TCAGCTTGCGGAGATGCGATGGTTGGTGTGGTTGGATCGAGAAAAAGGTACGCCC
DNA 2: GGGCGTACCTTTTTCTCGATATCGCATCTCCGCAAGCTGA
binding result: binds
